Kd data for 1 molecule are collected here from article doi:10.1101/2021.02.02.429153 (bioRxiv, 2021).

This assay addresses T1, tryptophan 2-C-methyltransferase (TsrM) from Streptomyces laurentii (Streptomyces laurentii, UniProt C0JRZ9 1-599).
T1 sequence (looked up): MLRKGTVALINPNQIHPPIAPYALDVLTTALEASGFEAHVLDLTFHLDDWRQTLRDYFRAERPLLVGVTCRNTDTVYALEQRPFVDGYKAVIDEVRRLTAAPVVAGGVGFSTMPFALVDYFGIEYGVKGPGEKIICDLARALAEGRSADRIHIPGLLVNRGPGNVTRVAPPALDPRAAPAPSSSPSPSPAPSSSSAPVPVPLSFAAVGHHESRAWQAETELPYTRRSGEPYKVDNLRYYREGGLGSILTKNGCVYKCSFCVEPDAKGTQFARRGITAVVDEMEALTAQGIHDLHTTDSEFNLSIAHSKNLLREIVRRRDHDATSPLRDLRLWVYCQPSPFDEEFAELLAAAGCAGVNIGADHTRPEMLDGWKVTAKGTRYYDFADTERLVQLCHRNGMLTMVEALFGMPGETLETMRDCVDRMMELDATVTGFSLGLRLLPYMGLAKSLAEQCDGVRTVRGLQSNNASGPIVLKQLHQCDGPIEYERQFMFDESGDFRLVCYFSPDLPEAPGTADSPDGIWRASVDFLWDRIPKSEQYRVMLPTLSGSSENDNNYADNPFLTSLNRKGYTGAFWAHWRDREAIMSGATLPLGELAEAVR
Description: BLI.

B1: Streptomyces cattleya [4Fe-4S] ferredoxin Fdx1 (natural protein, UniProt F8K3M7 1-106, looked up)
chain: MTYVIAQPCVDVKDKACIEECPVDCIYEGQRSLYIHPDECVDCGACEPVCPVEAIFYEDDTPEEWKDYYKANVEFFDELGSPGGASKLGLIERDHPFIAALPPQNG
modifications: biotinylated through incubation with 1 equivalent of NHS-PEG4-Biotin
In turn, B1 showed a Kd of 40 µM.
